From the DeepSol protein solubility set

Experiment: soluble on expression in E. coli; label from the status in PepcDB or PDB records

Soluble on expression in E. coli, not soluble:
MGSDKIHHHHHHAEPAPSQEDMRLYTIASAPSAGRIEQDIKTLVGFGTRHTLSQTDSNAQGIGAARRWIETEFQRISAKCNGCLEVVTLSETVSGKRIPNPTEVVNVIAIQRGLTDPNRAVVMTGDIDSRVTDVMNSSAISPGANDNASGVAGTLEAARVLSQYQFAGTIIYAALSGEEQGLYGGDILINHAKAQGLQIQAVLNNDMIGNIAGINGVIDNHSVRVFSEGVRIAETSEEAKERYFSGGENDSASRNLARKIKSLADQYMTNLDVQLINRLDRFGRGGHHLPFNKAGFAAVRVMETNEHYHRQHQDIRTENGIAYGDVIEGVDFDFNAKLTALNAISLAAMAWAPAPPKEVKISGEVSADTVLKWTVNNKDKALVGYRVYWRNTTASEWTHSRYVGKLGQFTLKNLVIDNYLFGVASVSADGNTSPVVFPGAIGAF, MGSDKIHHHHHHAEQKEEGISVLRYDKLLSEYVRSNSFSAMQKLTMDYRQPTKILIEDVLSIGTVKDDTISQRLQKFYSDSTLLRLLSDVEAKYPNLDEVEKGLTKGFRKLKKEVPDTKIPFIYSQISAFNESIILVDTLLGISLDKYMGEDYPLYKRFYYDYQCTSMRPERIVPDCFAFYLLSRYEMNYHEGTCLVDLMMHSGKINYVVQHLLGYDDIGQAMGYSDQENEWCRKNEKDIWEYICANDHLHARDPMVIRYYMKPAPTVDMLGGQAPALIGSWVGARIIASYMKKHKDLKIKDLLELTDYQSMFEESGYLKL, MGSDKIHHHHHHAESDSFEDNSSNFESMISLYGIQSATVDSKVGDVPSVTAEEMASVLEALRQNGNTIRNCESETLEGYYEGGDRKEVKMIAEYQARTRSGAFVEQFALCVSVNFNIDNNGGVFYIGTTYSSSTDLFNWQGYGASLSTTAEGNSVFSSTSYLYFRVSDQGNCLVKVPVSFKGSYNFKDNKGTYSFTLSKAAN, MGSDKIHHHHHHAGELRERVYLQTDKQFYLSGELVWMKFIATDLDQRLSDVSKVGYVELLDSASAVVQARLVLEKGVGDGCLQLPSTLPTGNYRLVAYTRYMRNEGEEVFFEKPLAVVNTFVTNETLLTDTLLPAYSFTRREDPVSVSPDRMTYDTRSGGEIRINGLPPDLQTLSVSIAGIDLYKPSARSGIVDWKQSMPTTGSSPADRKFLAEYEGPILTGKVIDLSTGEPSSKEAVRPLLGFSGGEIRLFGGQLGPAGEVTFFTRHISGTHEIVTVALSPSSSRYRVDIESPYATHPEKELPALRLNPAWQDELVKRSVGLQVLHAYRSDSLVREKAEKPWFQWQPDWSYLLDEYTRFTTMEEVVIEFIPGLRFRKMDGVRRLAVLTEERIGYTIGNSLVLLDGIPITDHEIIFKYDPLKIRKIDVYKGKYVFGGQIFDGIASFSSYEHNYPGLVVDNSTQFFDYEGTQAQRIFYMPAYRTEAEKRSPVPDFRHTLLWRPDIRTNGESSISIPFTTSDLTGDFTITIEGLTQTGEALYATEQFQVK, MGSDKIHHHHHHALPDPVKPKAPKAVNPFHLGMAGYTFVNFDLDTTLKTLERLDIHYLCIKDFHLPLNSTDEQIRAFHDKCAAHKVTGYAVGPIYMKSEEEIDRAFDYAKRVGVKLIVGVPNYELLPYVDKKVKEYDFHYAIHLHGPDIKTYPDATDVWVHTKDLDPRIGMCLDVGHDLRNGCDPVADLKKYHTRVFDMHIKDVTDSSKAGVGIEIGRGKIDFPALIRMMREVNYTGMCSLEYEKDMKDPFLGIAESIGYFKAVSDLT, MGSDKIHHHHHHALSSDYFTTTPQVLEAVGGKVPVTINGKFPEKYFKKNAVVEVTPVLKWEGGQVKGQPAVFQGEKVEGNDQTISYKMGGNYTMKTTFDYVPEMAKSELYLEFNAKVGKKTIAIPAVKIADGVISTSELINNTLSSANPALGDDAFQRIIKEAHNANIMFLIQQANIRSSELKTAKEFNKEVANVNDAENKKISNIEISAYASPDGGVKLNTGLAENREGNTTKLINKDLKKAKIEVPVDAKYTAQDWEGFQELVSKSNIQDKELILRVLSMYQDPEQRETEIKNISSVYKTLADEILPQLRRSRLTLNYEIIGKSDEEIANLAATDPKQLNVEEILYAATLTNDPAKKADIYTKASQQFPNDYRAFNNLGKLAYQAGDLDKAQSYVKKAESIKSAPEVNMNLGLIALAKGDKAAAESYLGKAAGAKELNETLGNLYVAQGQYERAVNAFGDTKTNSAALAQILAKDYNKAKNTLAGIATPDAYTDYLMAVLGARTNNTSMLTSSLKSAVAKNPALAKKAATDLEFAKYYTNADFMSIVK, MGSDKIHHHHHHANVEVQKENFVFSIKGTDTLSLDKYELPSISPASKKPVMIFAFGGGFKGGDKADKGYIPYFEFLARNGFVVVSTDYRTTLKNLDPSKVSSPMDFIAALQHAIDTAVEDFYDATGFVINQSSDWNIDVEQIVASGSSAGAITVLQAEYDLCNGHELAKRLPAGFNYAGVISYAGAVSGVLPPHWEKMPCPIMLFHGDADKTVPFEQAAMENLGGLWGSSAVAKSLENLQASYYFYKVENAGHEISGLPMSRNQYDIMSFLSRQVLGDENLAITTDERVPGDTIVRKDFTVQDYILDNLR, MGSDKIHHHHHHAPKGAEARMIATVDAEQARTLRFLEVMVNQNSGSRNLEGVRRLRDIVVPEFTALGFTSRWIPMERTGRAGHLVLTHKGRQGAKKLLLIGHLDTVFEPDSPFQTYVLNGEKATGPGVGDDKGGIAVILAAVRAMNAAGTLKGASIEVFLTGDEEEAGSPTEVARADLVAAARAADVALDFEGLSRENGRDMGSIARRSSQSWSLTVEAKSGHSSGVWGANAGDGAIYAAAKIVNAFRTELPEPWLTLNVGLIAGGAEAEVAEDNAHVSAQGKTNIIPGEVIARGDLRTLSPEQNRAAMRKMEEIVGRPYPGVTSARIAFSEGYPPMAPTEGNKALLARLNQVNATLGLPEMQPLDPMKRGAGDISFVAEYIDGLVGLGPHSTGDHAPGETVDVPSIWTQAKRAALLMTRLSAEKSAR, MGSDKIHHHHHHAPLTFDETAFREDVKTLASDAFGGRAPLSDGEQKTLDYLTHAFKSMGLKGAFNGEYLQAVPMAKITADQSMVLKVGELSFTSGEDFTARTQRVVPKVELSGSDMVFVGYGINAPEYGWNDYAGIDVRGKTVVLLVNDPGFATQDPKVFKGNAMTYYGRWTYKYEEAARQGAEAVFIVHEDAPAAYGWGVVKNSNTNTKFTLVDGNNNQSQVGVMGWLQYAAAKQILAASGQDIEALKAAAKAPGFKAVPLTVQADLTLSNHIERAESHNVAAILPGNKNADEAVVMHAHWDHLGQIEEEGKTIILNGAVDNATGVAGVLALARHYAALPEAEKPARSMIFSAFTAEETGLIGAQYFAENPPLPTSKLVAFLNIDGMNVGEGVDYILRYGEGVSELETMLSDAAKAQNRQVKADPRPQNGLMFRSDHFALAQQGVPGLLFMSLGDTDPDYIAHKYHKGADDYSPDWQLGGVKQDLKLIEQILSRLANGSEWPKWLEESDFKARRAKDGR, MGSDKIHHHHHHAQNGNVLGQVIRLPKSKGNIYQLLGLVTERSGYLFIYDSKIIDNEQTTSIKGGDYTIQEAIYAITGNKNLAIRAIENHLLLYLPESPSAPKSASVTPDSIQTYFSIEGSLQDQYTHEPIAFGSVGIGEAAIGTITNQNGEFRLKLPDSLRLSKVRFSHIGYLPQEIDSRELIDKHTVLSLEPKVISIQEVIVRLTNPKRLLQEMLDKRRSNYSQHPIYLTTFYREGVERKKGLVGLTEAVFKVYKASYHSNALADQVKLLKMRRISNEQEKDTLITKMKSGIYSCLVLDLMKQLPEFLDPSPDSPYTYAHTDITVVDDRLANVISFEQRKSINEPLYRGQIYIDMENNALLRVDFEVNPQYIEQAAGMFVERKSRNLRITPQKVAYTVSYKQWNGTYYINHIRGDLHFKIKKRRQLFNTNILHTWFEMVTCKIDTANVNRFSRIESLPTRTVFSDTHFNYDEGFWGDFNVILPEDKLNEAISRITSKIEETNY, MGSDKIHHHHHHAQTDSMLIRPTVDKRVELLSIIFRLTGNPEYNRNDFKLYTDRIESHFSPYKNHELISFARSLVKTDGVSYDAVMSMAINLDNQFNLPADYGSLDSRWNRNQVGPFIKLLKKFVKDSRFDAFYHSNENLYQEAVSRFMPIYKSIDTQWYNDFYGQKSNDRFHIILSMSNGPGNYGPSVTDKENVHNVFSVMGAWVTDSVGMVVYPPELILPILIHEFNHSFINFDPEMFRTSGEQIYAAVGEQMARQAYGQWSIVLTEAMVRAAVIKYMKDHNFPAVEITKETVIQKTRGFVWISKLVDELEKYSSDRTTYPTLNSYMPRLAEAYTGFAQYTANYDSIRPKVVSIDEFTNGDTTVRSDIKTITVHFDRPLVGRGHSFNYGHLGMEAMPKIINVNYANDNRTVIIGVELLPGKEYGITLLGLSFRTPEGDAIKPYEISFKTAE
